Data on 1 protein can be found in FireProtDB (doi:10.1006/jmbi.1998.1906).

For the series the following is noted: Homo sapiens, Thermal, DSC, glycine 0.05 M, reversible: yes, whole UniProt chain shown.

B1: Lysozyme C wild type, P61626 (protein)
chain: MKALIVLGLVLLSVTVQGKVFERCELARTLKRLGMDGYRGISLANWMCLAKWESGYNTRATNYNAGDRSTDYGIFQINSRYWCNDGKTPGAVNACHLSCSALLQDNIADAVACAKRVVRDPQGIRAWVAWRNRCQNRDVRQYVQGCGV
As a reminder, the Tm is the temperature at which the thermal transition is half complete. With B1, the Tm turned out to be 45.5 °C (pH 2.53); 49.2 °C (pH 2.7); 52 °C (pH 2.81); 55.4 °C (pH 3.04); 57.8 °C (pH 3.14). Further, the “unfolding enthalpy (calorimetric)” value runs as follows: (pH 2.53) 75.4 kcal/mol; (pH 2.7) 82.5 kcal/mol; (pH 2.81) 85.9 kcal/mol; (pH 3.04) 91.6 kcal/mol; (pH 3.14) 96.4 kcal/mol. The “unfolding enthalpy (van 't Hoff)” value by setting is: (pH 2.53) 79.8 kcal/mol; (pH 2.7) 85.4 kcal/mol; (pH 2.81) 89.2 kcal/mol; (pH 3.04) 95 kcal/mol; (pH 3.14) 97.4 kcal/mol.
